Results on 1 molecule are retold here after patent US20170137466A1 (UNIVERSITY OF SOUTHAMPTON, published 2017).

In the test the target is T1, HLA-Cw*0102.
T1 construct: whole, on cells; MHC class I molecule on cells, as the partner that takes up the peptide; also called cell surface MHC class I of L721.174 cells
Briefly: MHC class I stabilisation on L721.174 cells with increasing peptide, flow cytometry.

From the text: Cells were stained for cell surface of MHC class I and analysed by flow cytometry. The mean fluorescence intensity of cell surface MHC Class I was plotted against the peptide concentration.
3×10⁵ cells were used per condition. Following washing in PBS the cells were stained for cell surface of MHC class I and analysed by flow cytometry. The mean fluorescence intensity of cell surface MHC Class I was plotted against the peptide concentration.

LNPSVAATL [peptide LNPSVAATL (SEQ ID NO: 1)]: the binding result was “binds”.
